In publication PMC7439511:

Target: GST-PHD^RACK7 (human)
Experiment: MST

## H3.3G34R peptide (amino acids 22 to 44) (from UniProt P84243 23-45)
  Kd: 6 µM
